Reference: PMC11933327, “Asymmetric activation of dimeric ATM/Tel1 kinase” (Cell Discovery, 2025)

How the values were obtained:
[1] = molecular target: ATM/Tel1, active state (endogenously activated by DNA damage) (Schizosaccharomyces pombe) (UniProt O74630); assay: cryo-EM structure; active wild-type ATM/Tel1 incubated with the CHK2 63-74 peptide and AMP-PNP in vitro; Structure 2, 3.6 Å
[2] = molecular target: ATM/Tel1, active state (endogenously activated by DNA damage) (Schizosaccharomyces pombe) (UniProt O74630); assay: mass photometry; active ATM/Tel1 incubated with over-saturated full-length CHK2, complex fractionated by GraFix
[3] = molecular target: ATM/Tel1, basal state (Schizosaccharomyces pombe) (UniProt O74630); assay: cryo-EM structure; basal state; resolution improved from 7.8 Å to 4.3 Å with a new algorithm
active ATM/Tel1 dimer = assay: Mass photometry of GraFix-assembled ATM/Tel1-CHK2 complex; type: binding, Schizosaccharomyces pombe; conditions: over-saturated full-length CHK2, AMP-PNP, mass photometry 25 °C, 20 nM final protein
Experimental: to SDS- PAGE and analyzed by Western blot (WB) using pan- acetylated -Lysine (Rabbit monoclonal, Cat# 9441S, Cell Signaling Technology). and phospho-ATM/ATR substrate (pSQ/pTQ motif, Rabbit monoclonal, Cat# 6966, Cell Signaling Technology) antibodies.
Surface plasmon resonance
Interaction analysis between ATM/Tel1 in different states and CHK2 was performed at 20 °C using a Biacore 8K (GE Healthcare) by immobilizing CHK2 onto a CM5 sensor chip. A twofold dilution series of […] was injected at a flow rate of 30 µl min –1 in PBS running buffer. All conditions were tested for at least five different antibody concentrations, and the blank channel of the chip served as the negative control. After each cycle, the sensor was regenerated with 10 mM NaOH.
Data processing and kinetic analyses were performed using Biacore 8K Evaluation Software […]
To determine the stoichiometry and mass distribution between active ATM/Tel1 and its substrate CHK2, standard mass photometry landing assays were performed at 25 °C using a TwoMP instrument (Refeyn) mounted on an active anti-vibration platform. […] Bovine serum albumin standards (Beyotime) were measured on the same day to calibrate extracted particle contrast relative to mass. […]

[4] = molecular target: ATM/Tel1, active state (endogenously activated by DNA damage) (Schizosaccharomyces pombe, UniProt O74630 1-2812, autophosphorylation and acetylation (sites not given)); assay: SPR
ATM/Tel1, basal state [5] = molecular target: ATM/Tel1, basal state (Schizosaccharomyces pombe, UniProt O74630 1-2812); assay: SPR
ATM/Tel1, basal state [6] = molecular target: T1, ATM/Tel1, basal state (Schizosaccharomyces pombe, UniProt O74630 1-2812); assay: SPR; CHK2 (full length or peptide) at varied concentrations on basal or active ATM/Tel1; conditions: both partners purified
T1 construct: ATM/Tel1 kinase of Schizosaccharomyces pombe, basal state, symmetric homodimer; also called basal ATM/Tel1; basal-state ATM/Tel1; source: purified

Chain of ATM/Tel1, active state (endogenously activated by DNA damage) (O74630 whole entry): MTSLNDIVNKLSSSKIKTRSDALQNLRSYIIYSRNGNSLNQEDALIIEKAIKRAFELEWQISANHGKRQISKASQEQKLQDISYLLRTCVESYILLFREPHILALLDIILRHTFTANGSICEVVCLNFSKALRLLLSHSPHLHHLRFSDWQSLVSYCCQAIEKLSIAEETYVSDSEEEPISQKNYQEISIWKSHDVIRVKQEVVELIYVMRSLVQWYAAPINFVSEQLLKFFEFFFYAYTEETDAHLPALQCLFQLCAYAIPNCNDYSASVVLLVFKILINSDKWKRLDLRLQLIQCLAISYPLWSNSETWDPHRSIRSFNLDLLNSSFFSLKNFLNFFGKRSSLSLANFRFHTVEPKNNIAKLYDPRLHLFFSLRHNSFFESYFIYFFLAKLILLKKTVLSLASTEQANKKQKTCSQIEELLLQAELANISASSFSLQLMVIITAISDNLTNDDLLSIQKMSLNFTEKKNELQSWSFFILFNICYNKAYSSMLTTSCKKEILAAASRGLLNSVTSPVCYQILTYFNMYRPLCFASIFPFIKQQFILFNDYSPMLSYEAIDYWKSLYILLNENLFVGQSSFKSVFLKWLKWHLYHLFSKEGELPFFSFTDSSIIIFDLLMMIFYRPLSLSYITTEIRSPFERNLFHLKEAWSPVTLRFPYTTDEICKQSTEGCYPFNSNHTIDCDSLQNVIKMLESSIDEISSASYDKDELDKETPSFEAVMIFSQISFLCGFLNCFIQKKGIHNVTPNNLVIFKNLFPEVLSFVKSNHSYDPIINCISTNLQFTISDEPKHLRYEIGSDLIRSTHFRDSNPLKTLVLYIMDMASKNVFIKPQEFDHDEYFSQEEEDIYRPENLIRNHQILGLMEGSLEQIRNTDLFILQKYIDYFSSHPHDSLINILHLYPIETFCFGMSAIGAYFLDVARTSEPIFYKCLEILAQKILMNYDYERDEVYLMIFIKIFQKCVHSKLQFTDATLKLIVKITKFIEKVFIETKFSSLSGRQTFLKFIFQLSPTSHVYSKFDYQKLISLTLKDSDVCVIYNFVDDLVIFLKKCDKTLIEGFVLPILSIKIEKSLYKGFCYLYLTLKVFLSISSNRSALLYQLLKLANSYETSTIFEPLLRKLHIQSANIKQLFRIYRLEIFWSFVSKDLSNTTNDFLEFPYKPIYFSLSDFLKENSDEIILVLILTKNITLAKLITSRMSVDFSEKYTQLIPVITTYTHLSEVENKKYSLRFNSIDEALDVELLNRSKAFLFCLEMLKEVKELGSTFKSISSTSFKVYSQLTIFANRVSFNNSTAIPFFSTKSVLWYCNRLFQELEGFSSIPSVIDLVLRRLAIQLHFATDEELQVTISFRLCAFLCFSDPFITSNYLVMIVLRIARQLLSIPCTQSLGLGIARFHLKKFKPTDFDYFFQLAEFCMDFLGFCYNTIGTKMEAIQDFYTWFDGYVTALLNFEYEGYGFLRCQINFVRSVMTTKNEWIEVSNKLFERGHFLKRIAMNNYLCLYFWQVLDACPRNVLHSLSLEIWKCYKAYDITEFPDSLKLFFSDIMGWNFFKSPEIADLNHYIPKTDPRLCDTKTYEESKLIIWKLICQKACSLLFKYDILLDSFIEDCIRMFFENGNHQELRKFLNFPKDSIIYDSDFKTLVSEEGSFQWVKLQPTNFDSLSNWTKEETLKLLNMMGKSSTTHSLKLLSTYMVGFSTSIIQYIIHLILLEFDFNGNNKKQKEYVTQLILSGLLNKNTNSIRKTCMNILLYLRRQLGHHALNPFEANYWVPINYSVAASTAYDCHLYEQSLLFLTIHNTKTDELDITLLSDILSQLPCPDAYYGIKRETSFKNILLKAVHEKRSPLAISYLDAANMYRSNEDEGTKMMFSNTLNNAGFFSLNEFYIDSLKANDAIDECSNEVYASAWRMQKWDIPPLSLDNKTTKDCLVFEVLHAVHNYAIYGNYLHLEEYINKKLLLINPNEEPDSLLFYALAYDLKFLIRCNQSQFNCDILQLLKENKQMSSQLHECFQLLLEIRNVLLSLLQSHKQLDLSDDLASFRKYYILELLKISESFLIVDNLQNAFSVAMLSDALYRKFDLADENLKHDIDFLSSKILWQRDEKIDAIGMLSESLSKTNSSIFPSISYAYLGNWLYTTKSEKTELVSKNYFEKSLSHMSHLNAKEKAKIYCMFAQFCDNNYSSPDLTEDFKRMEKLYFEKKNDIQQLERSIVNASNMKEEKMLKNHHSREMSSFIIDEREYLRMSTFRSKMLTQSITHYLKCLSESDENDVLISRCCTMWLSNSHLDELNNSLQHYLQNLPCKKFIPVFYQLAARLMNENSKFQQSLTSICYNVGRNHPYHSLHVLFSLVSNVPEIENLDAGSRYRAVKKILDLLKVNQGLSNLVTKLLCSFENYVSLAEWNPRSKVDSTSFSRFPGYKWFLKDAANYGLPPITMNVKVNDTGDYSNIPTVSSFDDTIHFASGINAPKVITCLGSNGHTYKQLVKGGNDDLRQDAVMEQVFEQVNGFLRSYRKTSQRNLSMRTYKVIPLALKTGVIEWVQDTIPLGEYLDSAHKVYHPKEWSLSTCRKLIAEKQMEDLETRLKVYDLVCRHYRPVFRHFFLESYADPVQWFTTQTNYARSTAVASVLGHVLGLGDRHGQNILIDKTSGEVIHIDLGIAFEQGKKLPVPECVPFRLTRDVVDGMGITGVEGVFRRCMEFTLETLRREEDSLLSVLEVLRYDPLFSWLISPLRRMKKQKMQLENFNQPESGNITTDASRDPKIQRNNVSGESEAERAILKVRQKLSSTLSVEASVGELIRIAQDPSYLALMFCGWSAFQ

**Q.** How did the stoichiometry N [1] turn out when “ATM/Tel1, active state (endogenously activated by DNA damage), O74630 1-2812” was run?
**A.** The stoichiometry N was 2.

**Q.** And the stoichiometry N [2]?
**A.** The stoichiometry N was 2.

**Q.** For ATM/Tel1, basal state, O74630 1-2812, which stoichiometry N [3] is on record?
**A.** Its stoichiometry N is 2.

**Q.** With “full-length CHK2: human full-length CHK2, C-terminal 6× His tag, expressed in E. coli BL21(DE3)” as the molecule, how does the “CHK2 molecules bound per ATM/Tel1 dimer” value (active ATM/Tel1 dimer) read?
**A.** The value was “only one CHK2 molecule is bound to an ATM/Tel1 dimer”.

B1: CHK2 substrate peptide (CHK2 63-74) (peptide, UniProt O96017 63-74, looked up)
peptide: LETVSTQELYSI
notes: CHK2 residues 63-74; also called CHK2 peptide
**Q.** B1 was tested. Which Kd [4] did it give?
**A.** The Kd was 2.37 µM.

**Q.** And the Kd (ATM/Tel1, basal state [5])?
**A.** The Kd was 296 µM.

**Q.** What about the “fold reduction of affinity against active ATM/Tel1” value (ATM/Tel1, basal state [6]) of the same molecule?
**A.** Its value is over 120 fold.
